According to patent US20230220021A1 (UNIVERSITY OF COPENHAGEN, published 2023):
Like-named read-outs stand apart in the source and are kept apart here. Bridges are numbered along the chain shown (N, C = ends). [ ]: non-standard residue; d: D form.

How the values were obtained:
[1] = target: T1, (7× His)-PSD-95-PDZ2 wild type (UniProt P78352 160-246); experiment: ITC, 25 °C
T1 construct: domain: PDZ2; recombinant from E. coli; also called PSD-95-PDZ2 WT; not shown: 7x His tag

[2] = target: T1, (7× His)-PSD-95-PDZ2 wild type; experiment: FP competition
Procedure: (§1) Fluorescence polarization (FP). FP assays were performed in a 384-well plate format. Fluorescence polarization was measured using a Safire 2 plate reader. The instrument Z-factor was optimized for each assay. The G-factor was calibrated to an initial milli polarization value of 20. […] Every measurement was performed in NaPI 50 mM, 50 mM NaCl and 1% BSA at pH 7.2, 25° C. […] The curves were done in triplicates. Then, the polarization was fitted into a one-site binding model using Prism software 8.0 (GraphPad), from which the Kd can be measured. […] The mili polarization (mP) values were plotted as a function of peptide concentration and fitted to a sigmoidal dose-response curve using Prism software 8.0 (GraphPad). The Kᵢ values were calculated according to Nikolovska-Coleska Z. et al.⁴⁰⁻⁴¹

[3] = target: T1, (7× His)-PSD-95-PDZ2 wild type; experiment: FP competition; remark: listed apart in the source
Procedure: as §1

[4] = target: T1, (7× His)-PSD-95-PDZ2 wild type; experiment: FP competition; remark: listed apart in the source
Procedure: Fluorescence polarization (FP). FP assays were performed in a 384-well plate format. Fluorescence polarization was measured using a Safire 2 plate reader. The instrument Z-factor was optimized for each assay. The G-factor was calibrated to an initial milli polarization value of 20. […] Every measurement was performed in NaPI 50 mM, 50 mM NaCl and 1% BSA at pH 7.2, 25° C. […] The curves were done in triplicates. […] The mili polarization (mP) values were plotted as a function of peptide concentration and fitted to a sigmoidal dose-response curve using Prism software 8.0 (GraphPad). The Kᵢ values were calculated according to Nikolovska-Coleska Z. et al.⁴⁰⁻⁴¹

[5] = target: T1, (7× His)-PSD-95-PDZ2 wild type; experiment: FP competition; remark: listed apart in the source
Procedure: as §1

[6] = target: T1, (7× His)-PSD-95-PDZ2 wild type; experiment: FP competition; remark: listed apart in the source
Procedure: as §1
Data was collected in triplicates and is presented as mean of Kᵢ values±SEM.

[7] = target: T1, (7× His)-PSD-95-PDZ2 wild type; experiment: FP competition; remark: listed apart in the source
Procedure: as §1

[8] = target: T1, (7× His)-PSD-95-PDZ2 wild type; experiment: FP competition; remark: listed apart in the source
Procedure: Fluorescence polarization (FP). FP assays were performed in a 384-well plate format. Fluorescence polarization was measured using a Safire 2 plate reader. The instrument Z-factor was optimized for each assay. The G-factor was calibrated to an initial milli polarization value of 20. […] Every measurement was performed in NaPI 50 mM, 50 mM NaCl and 1% BSA at pH 7.2, 25° C. […] The curves were done in triplicates. […] The mili polarization (mP) values were plotted as a function of peptide concentration and fitted to a sigmoidal dose-response curve using Prism software 8.0 (GraphPad).
Data was collected in triplicates and is presented as mean of Kᵢ values±SEM

PSD-95-PDZ2 V229A = target: T2, PSD-95-PDZ2 V229A (UniProt P78352 160-246); experiment: FP saturation
T2 construct: domain: PDZ2; not shown: 7x His tag

PSD-95-PDZ2 K165A = target: T3, PSD-95-PDZ2 K165A (UniProt P78352 160-246); experiment: FP saturation
T3 construct: domain: PDZ2; also called K165 mutation; not shown: 7x His tag

[9] = target: T1, (7× His)-PSD-95-PDZ2 wild type; experiment: FP saturation

T1 sequence (P78352 160-246): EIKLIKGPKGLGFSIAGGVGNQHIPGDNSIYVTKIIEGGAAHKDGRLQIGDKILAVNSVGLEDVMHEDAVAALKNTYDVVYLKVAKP

B1: cyclic nNOS β-hairpin peptide (WT), Cyclo-(THLETTFTGDGTPKTIRVTQpG(Qα)) (peptide)
peptide: cyclo(THLETTFTGDGTPKTIRVTQ[dP]GQ)
SMILES: CC[C@H](C)[C@@H]1NC(=O)[C@H]([C@@H](C)O)NC(=O)[C@H](CCCCN)NC(=O)[C@@H]2CCCN2C(=O)[C@H]([C@@H](C)O)NC(=O)CNC(=O)[C@H](CC(=O)O)NC(=O)CNC(=O)[C@H]([C@@H](C)O)NC(=O)[C@H](Cc2ccccc2)NC(=O)[C@H]([C@@H](C)O)NC(=O)[C@H]([C@@H](C)O)NC(=O)[C@H](CCC(=O)O)NC(=O)[C@H](CC(C)C)NC(=O)[C@H](Cc2c[nH]cn2)NC(=O)[C@H]([C@@H](C)O)NC(=O)[C@H](CCC(N)=O)NC(=O)CNC(=O)[C@H]2CCCN2C(=O)[C@H](CCC(N)=O)NC(=O)[C@H]([C@@H](C)O)NC(=O)[C@H](C(C)C)NC(=O)[C@H](CCCNC(=N)N)NC1=O
notes: also called Cyclic WT; Wild type mimic
[1]
  -ΔS*T: 0.35 kcal/mol
  Kd: 2150 nM
  ΔH: -7.74 kcal/mol

B2: cyclic nNOS β-hairpin peptide G115P T116E (peptide)
peptide: cyclo(THLETTFTGDPEPKTIRVTQ[dP]GQ)
SMILES: CC[C@H](C)[C@@H]1NC(=O)[C@H]([C@@H](C)O)NC(=O)[C@H](CCCCN)NC(=O)[C@@H]2CCCN2C(=O)[C@H](CCC(=O)O)NC(=O)[C@@H]2CCCN2C(=O)[C@H](CC(=O)O)NC(=O)CNC(=O)[C@H]([C@@H](C)O)NC(=O)[C@H](Cc2ccccc2)NC(=O)[C@H]([C@@H](C)O)NC(=O)[C@H]([C@@H](C)O)NC(=O)[C@H](CCC(=O)O)NC(=O)[C@H](CC(C)C)NC(=O)[C@H](Cc2c[nH]cn2)NC(=O)[C@H]([C@@H](C)O)NC(=O)[C@H](CCC(N)=O)NC(=O)CNC(=O)[C@H]2CCCN2C(=O)[C@H](CCC(N)=O)NC(=O)[C@H]([C@@H](C)O)NC(=O)[C@H](C(C)C)NC(=O)[C@H](CCCNC(=N)N)NC1=O
[2]
  Ki: 22500 nM

B3: cyclic nNOS β-hairpin peptide T112W G115P (peptide)
peptide: cyclo(THLETTFWGDPTPKTIRVTQ[dP]GQ)
SMILES: CC[C@H](C)[C@@H]1NC(=O)[C@H]([C@@H](C)O)NC(=O)[C@H](CCCCN)NC(=O)[C@@H]2CCCN2C(=O)[C@H]([C@@H](C)O)NC(=O)[C@@H]2CCCN2C(=O)[C@H](CC(=O)O)NC(=O)CNC(=O)[C@H](Cc2c[nH]c3ccccc23)NC(=O)[C@H](Cc2ccccc2)NC(=O)[C@H]([C@@H](C)O)NC(=O)[C@H]([C@@H](C)O)NC(=O)[C@H](CCC(=O)O)NC(=O)[C@H](CC(C)C)NC(=O)[C@H](Cc2c[nH]cn2)NC(=O)[C@H]([C@@H](C)O)NC(=O)[C@H](CCC(N)=O)NC(=O)CNC(=O)[C@H]2CCCN2C(=O)[C@H](CCC(N)=O)NC(=O)[C@H]([C@@H](C)O)NC(=O)[C@H](C(C)C)NC(=O)[C@H](CCCNC(=N)N)NC1=O
[2]
  Ki: 950 nM

## THLETTFTGDGTPKTIRVTQ[dP]GD-NH2 (lactam N-23) [Cyclo-(105THLETTFTGDGTPKTIRVTQ124pG(Dγ)), Asp side-chain lactam]
[3]
  Ki: 4290 nM

## THLETTFTGDGTPKTIRVTQ[dP]GE-NH2 (lactam N-23) [Cyclo-(105THLETTFTGDGTPKTIRVTQ124pG(Eγ)), Glu side-chain lactam]
[3]
  Ki: 3600 nM

## cyclo(CTHLETTFTGDGTPKTIRVTQ[dP]G) (also called NCL peptide) [Cyclo-(C105THLETTFTGDGTPKTIRVTQ124pG), NCL]
[3]
  Ki: 1010 nM

B4: cyclic nNOS β-hairpin peptide ΔT112 (peptide)
peptide: cyclo(THLETTFGDGTPKTIRVTQ[dP]GQ)
SMILES: CC[C@H](C)[C@@H]1NC(=O)[C@H]([C@@H](C)O)NC(=O)[C@H](CCCCN)NC(=O)[C@@H]2CCCN2C(=O)[C@H]([C@@H](C)O)NC(=O)CNC(=O)[C@H](CC(=O)O)NC(=O)CNC(=O)[C@H](Cc2ccccc2)NC(=O)[C@H]([C@@H](C)O)NC(=O)[C@H]([C@@H](C)O)NC(=O)[C@H](CCC(=O)O)NC(=O)[C@H](CC(C)C)NC(=O)[C@H](Cc2c[nH]cn2)NC(=O)[C@H]([C@@H](C)O)NC(=O)[C@H](CCC(N)=O)NC(=O)CNC(=O)[C@H]2CCCN2C(=O)[C@H](CCC(N)=O)NC(=O)[C@H]([C@@H](C)O)NC(=O)[C@H](C(C)C)NC(=O)[C@H](CCCNC(=N)N)NC1=O
[4]
  Ki: 690 nM

B5: cyclic nNOS β-hairpin peptide ΔD114 (peptide)
peptide: cyclo(THLETTFTGGTPKTIRVTQ[dP]GQ)
SMILES: CC[C@H](C)[C@@H]1NC(=O)[C@H]([C@@H](C)O)NC(=O)[C@H](CCCCN)NC(=O)[C@@H]2CCCN2C(=O)[C@H]([C@@H](C)O)NC(=O)CNC(=O)CNC(=O)[C@H]([C@@H](C)O)NC(=O)[C@H](Cc2ccccc2)NC(=O)[C@H]([C@@H](C)O)NC(=O)[C@H]([C@@H](C)O)NC(=O)[C@H](CCC(=O)O)NC(=O)[C@H](CC(C)C)NC(=O)[C@H](Cc2c[nH]cn2)NC(=O)[C@H]([C@@H](C)O)NC(=O)[C@H](CCC(N)=O)NC(=O)CNC(=O)[C@H]2CCCN2C(=O)[C@H](CCC(N)=O)NC(=O)[C@H]([C@@H](C)O)NC(=O)[C@H](C(C)C)NC(=O)[C@H](CCCNC(=N)N)NC1=O
[4]
  Ki: 700 nM

B6: cyclic nNOS β-hairpin peptide ΔT116 (peptide)
peptide: cyclo(THLETTFTGDGPKTIRVTQ[dP]GQ)
SMILES: CC[C@H](C)[C@@H]1NC(=O)[C@H]([C@@H](C)O)NC(=O)[C@H](CCCCN)NC(=O)[C@@H]2CCCN2C(=O)CNC(=O)[C@H](CC(=O)O)NC(=O)CNC(=O)[C@H]([C@@H](C)O)NC(=O)[C@H](Cc2ccccc2)NC(=O)[C@H]([C@@H](C)O)NC(=O)[C@H]([C@@H](C)O)NC(=O)[C@H](CCC(=O)O)NC(=O)[C@H](CC(C)C)NC(=O)[C@H](Cc2c[nH]cn2)NC(=O)[C@H]([C@@H](C)O)NC(=O)[C@H](CCC(N)=O)NC(=O)CNC(=O)[C@H]2CCCN2C(=O)[C@H](CCC(N)=O)NC(=O)[C@H]([C@@H](C)O)NC(=O)[C@H](C(C)C)NC(=O)[C@H](CCCNC(=N)N)NC1=O
[4]
  Ki: 1430 nM

## THLETTFTGDGTPKTIRVTXPGQ (cyclic; D-Pro; N-methyl Gln 124) [cyclic nNOS β-hairpin peptide N-Me-Q124]
[5]
  Ki: 2200 nM

## THLETTFTGDGTPKTIRXTQPGQ (cyclic; D-Pro; N-methyl Val 122) [cyclic nNOS β-hairpin peptide N-Me-V122]
[5]
  Ki: 6170 nM

## TXLETTFTGDGTPKTIRVTQPGQ (cyclic; D-Pro; His(1-Me) at 106) [cyclic nNOS β-hairpin peptide His(1-Me)]
[6]
  Ki: 2900 nM

## THLETTFTGDGTPXTIRVTQPGQ (cyclic; D-Pro; N-methyl Lys 118) [cyclic nNOS β-hairpin peptide N-Me-K118]
[5]
  Ki: 480 nM
[7]
  fold improved affinity: 2 fold

## THLETTFTGDGTPKXIRVTQPGQ (cyclic; D-Pro; N-methyl Thr 119) [cyclic nNOS β-hairpin peptide N-Me-T119]
[5]
  Ki: 4880 nM

## THLETTFXGDGTPKTIRVTQPGQ (cyclic; D-Pro; phospho-Thr 112) [cyclic nNOS β-hairpin peptide pT112]
[8]
  Ki: 2680 nM

## THLETTFTGDGXPKTIRVTQPGQ (cyclic; D-Pro; N-methyl Thr 116) [cyclic nNOS β-hairpin peptide N-Me-T116]
[5]
  Ki: 930 nM

## THLETTFTGDGTPKTXRVTQPGQ (cyclic; D-Pro; N-methyl Ile 120) [cyclic nNOS β-hairpin peptide N-Me-I120]
[5]
  Ki: 1120 nM

## THLETTFTGDGXPKTIRVTQPGQ (cyclic; D-Pro; phospho-Thr 116) [cyclic nNOS β-hairpin peptide pT116]
[8]
  Ki: 210 nM

## XHLETTFTGDGTPKTIRVTQPGQ (cyclic; D-Pro; phospho-Thr 105) [cyclic nNOS β-hairpin peptide pT105]
[8]
  Ki: 2930 nM

## THLETTFTGDGTPKTIXVTQPGQ (cyclic; D-Pro; N-methyl Arg 121) [cyclic nNOS β-hairpin peptide N-Me-R121]
[5]
  Ki: 990 nM

## THLETTFTGDGTPKTIRVXQPGQ (cyclic; D-Pro; phospho-Thr 123) [cyclic nNOS β-hairpin peptide pT123]
[8]
  Ki: 1150 nM

## TXLETTFTGDGTPKTIRVTQPGQ (cyclic; D-Pro; His(3-Me) at 106) [cyclic nNOS β-hairpin peptide His(3-Me)]
[6]
  Ki: 400 nM

## THLETTFTGDGTPKXIRVTQPGQ (cyclic; D-Pro; allo-Thr at 119) [cyclic nNOS β-hairpin peptide AlloT119]
[4]
  Ki: 8990 nM

## cyclo(C(TAMRA maleimide)THLETTFTGDGTPKTIRVTQ[dP]G) (also called cyclic nNOS TAMRA probe) [cyclic nNOS β-hairpin TAMRA probe, cyclo-(CTHLETTFTGDGTPKTIRVTQpG) labelled with TAMRA]
PSD-95-PDZ2 V229A
  fold loss in affinity vs PDZ2 WT: 6 fold
PSD-95-PDZ2 K165A
  fold loss in affinity vs PDZ2 WT: 4 fold
[9]
  Kd: 1000 nM

## THLETTFTGDGTPKTIRVXQPGQ (cyclic; D-Pro; N-methyl Thr 123) [cyclic nNOS β-hairpin peptide N-Me-T123]
[5]
  Ki: 580 nM
[7]
  fold improved affinity: 2 fold

## XHLETTFTGDGTPKTIRVTQPGQ (cyclic; D-Pro; N-methyl Thr 105) [cyclic nNOS β-hairpin peptide N-Me-T105]
[5]
  Ki: 4800 nM
[7]
  fold decrease in affinity: 5 fold

## XHLETTFTGDGTPKTIRVTQPGC (cyclic by thioether (N-terminal acetyl to Cys); D-Pro, also called thioether bridged analogue) [Cyclo-(Ac105…124pGC), Thioether]
[3]
  Ki: 4800 nM

## THLETXFTGDGTPKTIRVTQPGQ (cyclic; D-Pro; allo-Thr at 110) [cyclic nNOS β-hairpin peptide AlloT110]
[4]
  Ki: 2290 nM

## XHLETTFTGDGTPKTIRVTQPGQ (cyclic; D-Pro; allo-Thr at 105) [cyclic nNOS β-hairpin peptide AlloT105]
[4]
  Ki: 2650 nM

## THLETTFTGDXTPKTIRVTQPGQ (cyclic; D-Pro; N-methyl Gly 115) [cyclic nNOS β-hairpin peptide N-Me-G115]
[5]
  Ki: 820 nM
